# How the values were obtained:
# [1] = molecular target: E3 SCF^βTrCP (neddylated; Skp1–βTrCP with Nedd8–ROC1–CUL1) (UniProt P63208)
# [2] = molecular target: E3 SCF^βTrCP (neddylated; Skp1–βTrCP with Nedd8–ROC1–CUL1) (UniProt P63208); remark: listed apart in the source
# [3] = molecular target: E3 SCF^βTrCP (neddylated; Skp1–βTrCP with Nedd8–ROC1–CUL1) (UniProt P63208); remark: listed apart in the source
substance,measurement,setting,value
IκBα (EE)–Ub (E64C)–I647 (from UniProt P25963 1-20; P0CG48 1-74; P25963 23-54),"real-time FRET IκBα diubiquitination, 30 °C, 30 min; conversion of substrate by gel analysis (Fig. 3A, B)",[1],85%
same,real-time FRET IκBα diubiquitination under single-round turnover condition (preformed complexes treated with apyrase) (Fig. 4),[2],20%
same,"FRET IκBα diubiquitination in test tube, time course to 10 min: IκBα–Ub2 product by gel, FRET signal rising alike (Fig. 2A)",[3],> 30%

# — article PMC7948536
